The assay has as its target Neuropilin-1 (Nrp-1), zebrafish (zebrafish) (UniProt Q8QFX6). The experiment in a line: cell-based or functional assay.
UniProt Q8QFX6, sequence (Q8QFX6 20-923 limits assumed): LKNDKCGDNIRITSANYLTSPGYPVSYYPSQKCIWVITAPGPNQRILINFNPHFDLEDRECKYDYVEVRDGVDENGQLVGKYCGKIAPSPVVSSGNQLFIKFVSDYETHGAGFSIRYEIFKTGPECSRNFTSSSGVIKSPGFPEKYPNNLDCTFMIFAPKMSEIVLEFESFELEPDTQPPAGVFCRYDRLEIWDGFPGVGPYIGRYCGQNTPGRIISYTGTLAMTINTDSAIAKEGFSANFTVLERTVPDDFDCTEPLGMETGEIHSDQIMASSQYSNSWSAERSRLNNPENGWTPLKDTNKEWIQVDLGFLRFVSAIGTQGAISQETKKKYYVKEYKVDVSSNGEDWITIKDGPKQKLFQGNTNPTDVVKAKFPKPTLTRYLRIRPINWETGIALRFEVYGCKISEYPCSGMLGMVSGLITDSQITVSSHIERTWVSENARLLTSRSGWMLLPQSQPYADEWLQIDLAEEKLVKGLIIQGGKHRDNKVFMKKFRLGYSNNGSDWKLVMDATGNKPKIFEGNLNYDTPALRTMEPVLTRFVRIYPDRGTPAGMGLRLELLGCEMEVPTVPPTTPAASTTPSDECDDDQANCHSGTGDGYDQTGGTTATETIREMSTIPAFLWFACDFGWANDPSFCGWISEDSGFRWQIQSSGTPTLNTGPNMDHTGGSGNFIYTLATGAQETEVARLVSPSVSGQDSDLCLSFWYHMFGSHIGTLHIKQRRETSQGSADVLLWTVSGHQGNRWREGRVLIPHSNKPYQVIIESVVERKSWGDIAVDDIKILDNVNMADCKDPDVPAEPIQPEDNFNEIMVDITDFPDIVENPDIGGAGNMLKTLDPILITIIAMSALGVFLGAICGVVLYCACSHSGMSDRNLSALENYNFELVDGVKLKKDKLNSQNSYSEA

On to “Vegfaa-165 R165E (zebrafish VEGF-A isoform 165 with arginine 165 changed to glutamic acid) (ligand)”, for which the Rescue percentage (embryos with blood flow circulation and without pericardial edema after mRNA injection into vegfaa-/- zebrafish) was determined as 3%.

The values are drawn from patent publication EP3216458A1.
